Source: the supplement of paper PMC9170038

What follows are sequences tested on MS2 coat protein (assay: apparent KD of MS2 coat protein, switch OFF state (with FMN for OFF switches, without FMN for ON switches); designed switch direction (-1 OFF switch, 1 ON switch): 1; higher = weaker reporter binding). Conditions: FMN input: 0 or 200 uM; Eterna round: R93 (includes R88 designs).
In short: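 For every design, apparent KD is the median of normalised binding-curve fits from its clusters. The RNA switches were transcribed on-chip from Illumina sequencing clusters and titrated with SNAP-549-labelled MS2 coat protein (twofold steps, 0.7 or 1.5 nM to 3 µM; 0.8–1.5 h to 10–20 min per step). Titrations used 100 mM Tris-HCl pH 7.5, 80 mM KCl, 4 mM MgCl2, without or with constant ligand.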

Row | Sequence | apparent KD of MS2 coat protein [nM]
1 | AUAAAAUAAAGUCAGGAUAUCCAUAAUAAAACAUGAGGAUCACCCAUGUUAAAAAAAAGAUCAUGGGAGAAGGGACAAAAUAAAU [SS2 M 33] | 57.6
2 | CGGAGACAUGAGGAUCACCCAUGUGAGAAGAGGCGAGGAUAUCGAAAGAAAGAAGAGAAACGAGAAGGCGCGAGGA [salish99-SS1-067] | 38.8
3 | AAAAAACAUGAGGAUCACCCAUGUGCAAAAUUCGCAGGAUAUUUCUCAAUUAAAUGAGAGGAAGAAGGGUGACAAA [Nob's Hobby 28 - Jieux - Same State 1] | 55.3
4 | GAAAAACAUGAGGAUCACCCAUGUAGAAACUAGGGAGGAUAUACUAAGACGAAAGUCGAAGUAGAAGGCCUUUAAA [Same State 1.4m (Mat - Mod of Eli - )] | 14.7
5 | AAGAAAGAAACGUAGGAUAUCAAGAAUAUAACAUGAGGAUCACCCAUGUAAAUACGAAAGUAUAAUGAGAAGGAUGGAUGAUCUUC [Mod of Mat of Meechl] | 32.8
6 | AGAAAACAUGAGGAUCACCCAUGUAGAAAUAUGGGAGGAUAUACAAAGACGAAAGUCAAAGUAGAAGGCCUAAAGA [Mat - Same State 1 - Eli mod - 33] | 71.9
7 | AGAAAACAUGAGGAUCACCCAUGUAGAAAUAUGGGAGGAUAUACAAGGACGAAAGUCAAGGUAGAAGGCCUAAAGA [Mat - Same State 1 - Meechl mod - D127] | 88.4
8 | AGACAUAACAGAGAGGAUAUCCAAUAGAAAACAUGAGGAUCACCCAUGUGAAAGAAAAUAAAAUGGGAGAAGGCUCACAUACAGA [Topaz 39] | 23
9 | AAAAGACAUGAGGAUCACCCAUGUCCUCGGACAUGAGGAUAUGUACAGACUUCGGUCUGUACAGAAGGCAUGUAAA [SS1 - 1070] | 232
10 | AAAAGACAUGAGGAUCACCCAUGUGAAAACGUGCGAGGAUAUGUAUGGAAACCAUACUGUACAGAAGGCGCGUGUC [SS1 - 83] | 32.3
11 | CGAGUACAUGAGGAUCACCCAUGUUAUGAAUUGUCAGGAUAUGGAUAAAGGUGACAUGCGCCAGAAGGGACGUAUG [JR_SS001_Sub1006] | 43.7
12 | GAGAGACAUGAGGAUCACCCAUGUAGGAUUAUGGGAGGAUAUACAAAGACGAGAGUCAGAGUAGAAGGCCUAGGAU [salish99-ss1-138(!)] | 54.9
13 | AACAAUCUAUCUGAGGAUAUCAUGUAAAAGACAUGAGGAUCACCCAUGUAGCAGGAAACUGCAUAUGAGAAGGCAGAUAGAUUGA [SS2: 1120] | 21.3
14 | AAAACACAUGAGGAUCACCCAUGUGCAAAAUUCGCAGGAUAUUUCUCAAUUAAAUGAAAGGAAGAAGGGUGAUAAA [Nob's Hobby 34 - Jieux - Same State 1] | 29.4
15 | UAACUACAUGAGGAUCACCCAUGUCUCCAGGGUCAAGGAUAUGGGCGUAGACAAACUACACCAGAAGGUGAUCCAA [Rireenon] | 307
16 | GAAAAACAUGAGGAUCACCCAUGUGAAAACUUGGGAGGAUAUACAAAGACGAAAGUCGAAGUAGAAGGCCUAAAAG [Same State 1.4k (Mat - Mod of Eli - )] | 106
17 | GAAGACAUAGUUCAGGAUAUAUGAAUAGUCACAUGAGGAUCACCCAUGUGCAUUUAUAUGCGCACAUAGAAGGGAGGUAGUUAUC [SameState2 Malc#24] | 23.5
18 | AGAAAUAAAAGAGAGGAUAUCCAAAAGAAAACAUGAGGAUCACCCAUGUGAAAGAAAAGAAAAUGGGAGAAGGCUCAAAAUAAGA [Topaz 18] | 55.4
19 | AAAAAACAUGAGGAUCACCCAUGUCAAAAGACGUGAGGAUAUGUACAGACUUCGGUCUGUACAGAAGGCACGUCAA [SS1 - 1043] | 20.4
20 | AGGAGACAUGAGGAUCACCCAUGUGAGAAGAGGCGAGGAUAUCGAAAGAAAGAAGAGAAACGAGAAGGCGCGAGAU [salish99-SS1-021] | 38.7
21 | AAAAAACAUGAGGAUCACCCAUGUGACAACAUGGGAGGAUAUACGAAGACGAGAGUCGAAGUAGAAGGCCUAAAAG [Garnet 78] | 65.3
22 | AAAAAACAUGAGGAUCACCCAUGUAACACUCAUGUAGGAUAUACAAAAAAAAAAAAAAAAGUAGAAGGACAAAAAA [Omei A variation 3] | 293

Row | Sequence | apparent KD of MS2 coat protein [nM]
23 | UAAAAACAUGAGGAUCACCCAUGUAAGAUAAACACAGGAUAUGCGAAAAGAAAGAAAGAAGCAGAAGGGUGAAAAU [Mat - Same State 1 - Tesla mod - 43] | 41.6
24 | CAAACAACAGCACAGGAUAUCCAUAUAAUAACAUGAGGAUCACCCAUGUAAGCGGAAAAUAACGCGGAGAAGGGUGAACACACAA [Default title] | 35.1
25 | AGAAAACAUGAGGAUCACCCAUGUGACAAUAUGGGAGGAUAUACGAACACGAAAGUCGAAGUAGAAGGCCUAAAGA [Garnet 53] | 75.7
26 | AAAAGACAUGAGGAUCACCCAUGUUAAGACGUGGGAGGAUAUGCAUGGAAAACAUGCUGUGCAGAAGGCCCGUGUC [SS1 - 23] | 78.6
27 | AAAAAACAUGAGGAUCACCCAUGUAAUACAACGUCAGGAUAUUGAUUUUAUUAUGUAUUGCAAGAAGGGACAAAAA [Same State 1.3 (Same State 1 - Omei 2 - one GC added)] | 144
28 | AAAAAACAUGAGGAUCACCCAUGUGAGAACAUGGGAGGAUAUACAAGGACGAGAGUCAAGGUAGAAGGCCUAAAGA [Mat - Same State 1 - Mod - D193] | 21.1
29 | AAAAAACAUGAGGAUCACCCAUGUGCAAAAUUCGCAGGAUAUUCUUUUUUUAAAUGAGAGGGAGAAGGGUGUAAAA [Nob's Hobby 21 - Jieux - Same State 1] | 22.4
30 | GGAAAUAACAGAGAGGAUAUCCAAAGGAAAACAUGAGGAUCACCCAUGUAAAAGGAAGGAAAUUGGGAGAAGGCUCAAAAUAAAU [salish99-ss2-015] | 29.1
31 | AGAAAUAAAGCUGAGGAUAUGGGAAAAUUCACAUGAGGAUCACCCAUGUAAAAGAAAAUAAAAAACCAGAAGGCAGCAAAUAAGA [Designing denovo 6] | 49.8
32 | AGAAAACAUGAGGAUCACCCAUGUAGAAAUAUGGGAGGAUAUACAAAGACGAAAGUCGAGGUAGAAGGCCUAAAGA [Mat - Same State 1 - Meechl mod - D122] | 103
33 | AAUAUAUUAAGUGAGGAUAUCAAGAAAAAAACAUGAGGAUCACCCAUGUGGGAAACAUGGUAGGGUGAGAAGGUACUUAAUAUAU [Samwise Clockwise 21 - Jieux - Same State 2] | 691
34 | AAGAAAGAAACAUAGGAUAUCAAGAAUAUAACAUGAGGAUCACCCAUGUAAAUACGAAAGUAUAAUGAGAAGGAUGGAUGAUCUUC [Mat - Mod of Meechl] | 34.5
35 | UAAAUACAUGAGGAUCACCCAUGUCAAGAGUAUUAAGGAUAUGAACCAGGGAACUGGCAGUCAGAAGGUGAGACUC [Ququeddi] | 65.2
36 | AAAAAACAUGAGGAUCACCCAUGUGAAAAUAUGGGAGGAUAUCAUGGAAAAAAAAAAACAUGAGAAGGCCCAGAAA [SS! 1 MT 11] | 67.1
37 | AUAAUAUUAAGCUAGGAUAUACUAAAGUAAACAUGAGGAUCACCCAUGUAAAAAAAAAAACUCAUGUAGAAGGAGCAUAAAUAAA [moonwalk 9] | 15
38 | AUGGUGCAGGUACAGGAUAUGUUGCUCGUAACAUGAGGAUCACCCAUGUACCUAUGAGAUUAAAUGCAGAAGGGUGCACACCACG [Quorra] | 1480
39 | UACACGCGGGCGCAGGAUAUGUCGCUGGUGACAUGAGGAUCACCCAUGUAUACCAUUGCGGUUGAGCAGAAGGGUGAGACGCGUG [Matimare] | 57.5
40 | AAAAAACAUGAGGAUCACCCAUGUCCAAAAAAAAAAGGAUAUGCAAAAAAAAAAAAAAAAGCAGAAGGUUUAAAAA [Same State 1] | 45.1
41 | AUGGUCAAGUGUGAGGAUAUCCAGGCUCCCACAUGAGGAUCACCCAUGUUUAUUAGAGCGUAAAGGGAGAAGGUACGAACGCCAU [Esbibiti] | 26.9
42 | AAACCACAUGAGGAUCACCCAUGUAAAAAAUAUGGAGGAUAUACUAGAAGAAACAAAAUAGUAGAAGGCCAAAAAA [75%, Ex sub1, 29] | 24.6
43 | AAUACACAUGGUCAGGAUAUCGCAGCUAGGACAUGAGGAUCACCCAUGUAAUAAGUAAAAGUAAAUGAGAAGGGACAGGGUGACC [JR_SS002_Sub405] | 206
